In article PMC12146755:

Assays:
[1] = molecular target: CD3ε (antigen of the surface plasmon resonance) (human) (UniProt P07766); test: SPR; format and conditions not given in the main text (SI Appendix, Fig. S1 D-F)
Target sequence in this assay (P07766 23-207): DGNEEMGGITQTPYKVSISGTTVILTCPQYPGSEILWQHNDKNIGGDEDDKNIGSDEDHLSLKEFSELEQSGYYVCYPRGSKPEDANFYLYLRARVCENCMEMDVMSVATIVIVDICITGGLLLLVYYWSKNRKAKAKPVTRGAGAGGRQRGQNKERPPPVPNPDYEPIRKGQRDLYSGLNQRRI

[2] = molecular target: CD3ε (antigen of the surface plasmon resonance) (human) (UniProt P07766); test: SPR; conditions: bispecific antibody
Target sequence in this assay (P07766 23-126): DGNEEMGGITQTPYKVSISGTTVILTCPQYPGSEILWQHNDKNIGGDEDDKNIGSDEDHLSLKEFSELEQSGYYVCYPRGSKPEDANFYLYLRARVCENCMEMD

[3] = molecular target: Her2 (antigen of the surface plasmon resonance) (human) (UniProt P04626); test: SPR; conditions: bispecific antibody

Substance	Kd [1]	Kd [2]	Kd [3]
Bispecific T cell engager Format C (anti-Her2 x anti-CD3ε, IgG1-based) (bispecific antibody)	< 10 nM	–	–
Bispecific T cell engager Format B (anti-Her2 x anti-CD3ε, IgG1-based) (from UniProt P01857)	–	4.2 nM	0.249 nM
Bispecific T cell engager Format A (anti-Her2 x anti-CD3ε, IgG1-based) (bispecific antibody)	< 10 nM	–	–
Bispecific T cell engager Format A (anti-Her2 x anti-CD3ε, IgG1-based) (from UniProt P01857)	–	3.8 nM	0.156 nM
Bispecific T cell engager Format C (anti-Her2 x anti-CD3ε, IgG1-based) (from UniProt P01857)	–	5.4 nM	0.086 nM
Bispecific T cell engager Format B (anti-Her2 x anti-CD3ε, IgG1-based) (bispecific antibody)	< 10 nM	–	–
